Here are results for three substances from paper PMC11050402.

Experiment [1] addresses human serum albumin (human) (UniProt P02768). The experiment in a line: SPR; Biacore T200, as described by Yin and co-authors (ref. 40); DOTA conjugates without radionuclide.
For experiment [2], the target named is murine serum albumin (murine) (UniProt P07724). Described as above.
Experiment [3] has as its target human epidermal growth factor receptor type 2 (HER2) (human (endogenous in SKOV-3 and BT-474)) (UniProt P04626). The experiment in a line: radioligand binding; LigandTracer Yellow on living SKOV-3 cells, 3 and 9 nM (1, 3 and 9 nM for [177Lu]Lu-G3), room temperature, with 100 nM human serum albumin; InteractionMap analysis, 1:2 model; apparent.

The Kd is a measure of binding affinity in units of concentration. Low readings indicate higher affinity, high ones lower affinity. The term koff denotes the rate constant with which the complex falls apart. A high value points to a short-lived complex. What is called kon is the second-order rate constant of association. Higher therefore signals fast association.

UniProt P07724, sequence (P07724 25-608): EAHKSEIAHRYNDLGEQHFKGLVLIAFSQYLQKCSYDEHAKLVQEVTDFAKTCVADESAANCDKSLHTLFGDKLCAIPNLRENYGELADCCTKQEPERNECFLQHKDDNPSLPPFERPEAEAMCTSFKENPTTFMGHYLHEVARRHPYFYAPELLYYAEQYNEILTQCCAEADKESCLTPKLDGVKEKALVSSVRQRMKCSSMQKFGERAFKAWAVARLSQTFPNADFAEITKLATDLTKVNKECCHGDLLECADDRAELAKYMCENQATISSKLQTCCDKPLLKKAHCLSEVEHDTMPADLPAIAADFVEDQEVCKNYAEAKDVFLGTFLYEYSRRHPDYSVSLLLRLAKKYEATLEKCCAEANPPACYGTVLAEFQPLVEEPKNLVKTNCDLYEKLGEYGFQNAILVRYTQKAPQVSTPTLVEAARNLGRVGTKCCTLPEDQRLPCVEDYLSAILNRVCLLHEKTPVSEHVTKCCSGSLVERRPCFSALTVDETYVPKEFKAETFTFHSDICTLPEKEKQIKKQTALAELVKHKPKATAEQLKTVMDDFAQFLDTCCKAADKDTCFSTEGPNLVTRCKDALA
UniProt P02768, sequence (P02768 25-609): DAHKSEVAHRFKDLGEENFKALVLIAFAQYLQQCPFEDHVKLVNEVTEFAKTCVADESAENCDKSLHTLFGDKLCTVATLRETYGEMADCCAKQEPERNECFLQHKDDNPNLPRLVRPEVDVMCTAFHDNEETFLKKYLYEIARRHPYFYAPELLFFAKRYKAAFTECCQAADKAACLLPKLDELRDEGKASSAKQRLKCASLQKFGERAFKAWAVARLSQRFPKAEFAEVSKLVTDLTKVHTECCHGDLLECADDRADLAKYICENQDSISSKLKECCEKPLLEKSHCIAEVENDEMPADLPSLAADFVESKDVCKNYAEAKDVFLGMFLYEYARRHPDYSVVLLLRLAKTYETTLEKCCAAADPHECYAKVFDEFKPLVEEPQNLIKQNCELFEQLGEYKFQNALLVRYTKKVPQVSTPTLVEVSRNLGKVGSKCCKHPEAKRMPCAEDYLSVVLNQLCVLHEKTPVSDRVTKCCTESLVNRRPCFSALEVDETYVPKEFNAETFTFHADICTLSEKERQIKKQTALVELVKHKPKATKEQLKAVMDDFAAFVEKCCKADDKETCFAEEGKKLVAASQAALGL

In experiment [1], G3-ABD-DOTA (designed binder) showed a Kd of 1.82 nM, a koff of 0.000238 s⁻¹ and a kon of 131000 M⁻¹ s⁻¹. Besides, in experiment [2], the dissociation constant Kd was determined as 8.46 nM, the koff came to 0.00518 s⁻¹ and the kon turned out to be 61300 M⁻¹ s⁻¹. In addition, in experiment [3], the KD1 (first interaction, 1:2 model) came out at 901 pM and the KD2 (second interaction, 1:2 model) came out at 24 nM.

For “non-ABD-fused DARPin G3 (control protein) (designed binder)”, in experiment [3], the KD2 (second interaction, 1:2 model) worked out at 34 nM.

In the case of ABD-G3-DOTA (designed binder), in experiment [1], the Kd was determined as 35.4 nM, the koff came to 0.000302 s⁻¹ and the kon worked out at 8530 M⁻¹ s⁻¹. In experiment [2], this substance showed a Kd of 81.3 nM, an off-rate constant (koff) of 0.00191 s⁻¹ and a kon of 23500 M⁻¹ s⁻¹. Also, in experiment [3], the KD1 (first interaction, 1:2 model) came out at 1290 pM and the KD2 (second interaction, 1:2 model) was 67 nM.
